The nanobody polyreactivity screen of Harvey et al. (2022)

assay: yeast display, Sf9 membrane polyspecificity reagent, FACS + sequencing; frameworks hold sequencing errors
Method in brief: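 Genes from sorted yeast were amplified by colony PCR, read by MiSeq 2 × 250 sequencing and filtered on CDR length. These cells carried a synthetic nanobody library in Saccharomyces cerevisiae BJ5465 and were sorted by FACS into low and high (top ~1%) gates on anti-HA and streptavidin fluorescence. Polyreactivity is labelled according to the gate of origin.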

Row | Sequence | polyreactivity (PSR sort gate)
1 | QVQLVESGGGLVQAGGSLRLSCDASGRIFYRYVMGWYRQAPGKERELVAAIRNSGGSTYYADSVKGRFTISRDNAKNTVYLQMNSMKPEDTAVYYCAKRYGTSFYVGSAKIGYDYWGQGTQVTLSS | high polyreactivity
2 | QVQLVESGGGLVQAGGSLRLSCDASGRILHYYAMGWYRQAPGKERELVATISISGGNTRYADSVKGRFTISRDNAKNTVYLQMNSLKPEDTAVYYCDARPYAGFDNWGQGTQVTVSS | high polyreactivity
3 | QVQLVESGGGLVQAGGSLRLSCDASGRTFNYNAMGWYRQAPGKERELVAAISGNGGNTYYADSVKWRFTISRDNAKNTVYLQMNSLKPEDTAGYYCNAVYRYYREWKYDYWGQGTQVTVSS | high polyreactivity
4 | QVQLVESGGGLVQAGGSLRLSCDASGRTFYANDMGWYRQAPGKERELVAAISSSVTSTHYADSVKGRFTISRDNAKNTVYLQMNSLKPEDTAVYYCNKDPIREVQPPGPSEMDYWGQGTQVTVSS | low polyreactivity
5 | QVQLVESGGGLVQAGGSLRLSCDASGRTSRWNAMGCYRQAPGKERELVAAISSGSSTTYADSVKGRFTISRDNAKNTVYLQMNSLKPEATAVYYCNAKSGSRFVYRRYYTYNSWGQGTQVTVSS | high polyreactivity
6 | QVQLVESGGGLVQAGGSLRLSCDASGSIFDGYGMGWYRQAPGKERELVASITWNDGSTYYAASVKGRFTISRDNATNTVYLQMNSLKPEDTAVYYCAADQWGYEYDYWGQGTQVTVSS | low polyreactivity
7 | QVQLVESGGGLVQAGGSLRLSCDASGSIFDYNTMGWYRQAPGKERELIAVISGTGGSTYYGDSVKGRFTISRDNAKNTVYLEMNSLKPEDTAVYYCAAAWYYSSRAFHATWGHDYWGQGTQVTVSS | low polyreactivity
8 | QVQLVESGGGLVQAGGSLRLSCDASGSIFGGYAMGWYRQAHGKARELVAGISSGGSTYYADSVKGRFTISRDNAKNTVYLQMNSLKPEDTAVYYCATSTYAYRRNSYYYTRPRFGYCGQGTQVTVSS | high polyreactivity
9 | QVQLVESGGGLVQAGGSLRLSCDASGSIFRYYGMGWYRQAPGKERELVAAISARGGSTRYADSVKGRFTISRDNAKNTVYLQMNSLKPEDTAVYYCAAGYPYDYDYWGQGTQVTVSS | high polyreactivity
10 | QVQLVESGGGLVQAGGSLRLSCDASGSIFYNNAMGWYRQAPGKERELVATIRRSGGSTYYADSVKGRFTISRDNAKNTVYLQMNSLKPEDTAVYYCAADYTPDLLSKVDYWGQGTQVTVSS | low polyreactivity
11 | QVQLVESGGGLVQAGGSLRLSCDASGSTFAYNVMGWYRQAPGKERELVAAISRSGGSTYYADSVKGRFTISRDNAKNTVYLQMNSLKPEDTAVYYCAKLFRPRLQDGYWGQGSQVTVSS | high polyreactivity
12 | QVQLVESGGGLVQAGGSLRLSCDASGSTFDTYAMGCYTQAPGKERELVAAITEDGASTYYADSVKGRFTISRDNAKYTVYLQMNSLKPEDTAVYYCAAEPTYWPVWYVLYDYLGQGTQVTVSS | low polyreactivity
13 | QVQLVESGGGLVQAGGSLRLSCDASGSTFGANAMGWYRQAPGKEREFVAAISRSGVRTYYADSVKGRFTISRDNAKNTVYLQMNSLKPEDTAVYYCAADGYWWTYTRYDYWGQGTQVTVSS | low polyreactivity
14 | QVQLVESGGGLVQAGGSLRLSCDASGSTFPSYTMGWSRQAPGKERELVAVIRLSSGSTYYADSVKGRFTISRDNAKNTVYLQMNSLKPEDTAVYYCNTGRYHYFPNYWYDYWGQGTQVTVSS | low polyreactivity
15 | QVQLVESGGGLVQAGGSLRLSCDASGSTFYVYAMGWYRQAPGKERELVASINSSTSTNYADSVKGRFTISRDNAKNTVYLQMNSLKPEDTAVYYCAADSRVPEYRSPKNDYWGQGTQVTVSS | low polyreactivity
16 | QVQLVESGGGLVQAGGSLRLSCDASGSTLSENVMGWYRQAPGKERELVATISYSGDSTYYADSVKGRFTISRDNAKNTVYLQMNSLKPEDTAVYYCAAGVGWDFAYWGQGTQVTVSS | low polyreactivity
17 | QVQLVESGGGLVQAGGSLRLSCDAYGSIFRLYAMGWFRQAPGKEREFVAAIDKRGGRTHYADSVKGRFTISRDNAKNTVYLQITSLKPEDTAVYYCAAKAYVVTNGHGKLDYWGQGPQVTVSS | high polyreactivity
18 | QVQLVESGGGLVQAGGSLRLSCDDSGRIFGGYGMGWYTQAPGKEGELVAAISARGGSTYYADSVKGRFTISRDNAKNTVYLQMNSLKPEDTEFYYCAAVEASSRGYYDYDYWGQGTQVTVSS | low polyreactivity
19 | QVQLVESGGGLVQAGGSLRLSCGASGFISTYYAMGWYRQAPGKERELVAAISWNGGSTYYADSVKGRFTISRDNAKNTVYLQMNSLKPEDTAVYYCAAYLGKWRHFYSSDYDYWGQGTQVTVSS | low polyreactivity
20 | QVQLVESGGGLVQAGGSLRLSCGASGRFFDDYAVGWYRQAPGKEREFVAAISRSGASTYYADSVKGRFTISRDNAKNTVYLQMNSLKPEDTAVYYCAARAGANYRMDYWGQGTQVTVSS | high polyreactivity
21 | QVQLVESGGGLVQAGGSLRLSCGASGRIFRGYTMGWYRQAPGKERELVAAINRSGGNTYYADSVKGRFTISRDNAKNTVYLQLNSLKPEDTAVYYCAAGARGYGWRGDYWGQGTQVTVSS | low polyreactivity
